Publication doi:10.1101/2024.12.23.630085, “Accurate sequence-to-affinity models for SH2 domains from multi-round peptide binding assays coupled with free-energy regression” (bioRxiv, 2025)
One block for each binder: values may come before it. Non-standard residues stand in square brackets, D forms with d. pY = N[C@@H](Cc1ccc(OP(=O)(O)O)cc1)C(=O)O

How the values were obtained:
Details in all cases: both partners purified
Lyn SH2 domain (121-228) = target: T1, Lyn SH2 domain (121-228) (human, UniProt P07948 121-228, biotin (on the AviTag)); assay: fluorescence polarisation; competition mode; unlabelled phosphopeptide against 30 nM FITC-Ahx-GDG-pY-EEISPLLL-NH2 and 106.5 nM Lyn SH2 (Table S3)
T1 construct: source: E. coli C43(DE3) with BirA helper plasmid, purified (HisTrap, anion exchange, Ulp1 cleavage, SEC); not shown: His6-SUMO, N-terminal, cleaved; AviTag, C-terminal, kept

c-Src SH2 domain = target: T2, c-Src SH2 domain (UniProt P12931-1 151-248, biotin (biotinylated SH2 domain of the selection)); assay: fluorescence polarisation; competition mode; unlabelled phosphopeptide against 30 nM FITC-Ahx-GDG-pY-EEISPLLL-NH2 and 122.745 nM c-Src SH2 (123.745 to 125.745 in three rows; Table S3)
T2 construct: SH2 domain of c-Src kinase; source: purified

Grb2 SH2 domain = target: T3, Grb2 SH2 domain (UniProt P62993 60-152, biotin (biotinylated SH2 domain of the selection)); assay: fluorescence polarisation; competition mode; unlabelled phosphopeptide against 30 nM FITC-Ahx-FDDPS(pY)VNVQN and 123 nM Grb2 SH2 (Table S3)
T3 construct: SH2 domain of the adapter protein Grb2; source: purified

Fyn SH2 domain (142-248) = target: T4, Fyn SH2 domain (142-248) (human, UniProt P06241 142-248, biotin (on the AviTag)); assay: fluorescence polarisation; competition mode; unlabelled phosphopeptide against 0.4 nM FITC-Ahx-GDG-pY-EEISPLLL-NH2 and 4.125 nM Fyn SH2, as printed (Tables S3 and S5)
T4 construct: SH2 domain of human Fyn kinase, residues 142-248; source: E. coli C43(DE3) with BirA helper plasmid, purified (HisTrap, anion exchange, Ulp1 cleavage, SEC); not shown: His6-SUMO, N-terminal, cleaved; AviTag, C-terminal, kept
T4 sequence (P06241 142-248): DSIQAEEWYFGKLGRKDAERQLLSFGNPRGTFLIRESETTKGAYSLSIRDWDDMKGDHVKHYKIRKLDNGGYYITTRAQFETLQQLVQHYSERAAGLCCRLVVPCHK

T1 sequence (P07948 121-228): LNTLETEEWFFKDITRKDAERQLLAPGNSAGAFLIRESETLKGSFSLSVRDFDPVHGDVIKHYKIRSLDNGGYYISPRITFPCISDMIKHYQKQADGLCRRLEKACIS
T3 sequence (P62993 60-152): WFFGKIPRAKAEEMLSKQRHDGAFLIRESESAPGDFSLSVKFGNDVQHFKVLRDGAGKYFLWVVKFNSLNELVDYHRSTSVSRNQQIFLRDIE

B1: CSF1R pY699 (peptide)
peptide: Ac-QEGGVD[pY]KNIHLG-NH2
SMILES: CC[C@H](C)[C@H](NC(=O)[C@H](CC(N)=O)NC(=O)[C@H](CCCCN)NC(=O)[C@H](Cc1ccc(OP(=O)(O)O)cc1)NC(=O)[C@H](CC(=O)O)NC(=O)[C@@H](NC(=O)CNC(=O)CNC(=O)[C@H](CCC(=O)O)NC(=O)[C@H](CCC(N)=O)NC(C)=O)C(C)C)C(=O)N[C@@H](Cc1c[nH]cn1)C(=O)N[C@@H](CC(C)C)C(=O)NCC(N)=O
notes: flank added to the 11-residue stretch (surmised: last residue of the library's constant GQSGQ); CSF1R, human, around pY699; flank added to the 11-residue stretch (surmised: first residue of the library's constant GGQSG); also called CSFR pY699; source: synthetic peptide (SynPeptide, China)
- Kd (Lyn SH2 domain (121-228)): 22800 nM

B4: ACTA1 pY171 (peptide)
peptide: Ac-QPIFEG[pY]ALPHAG-NH2
SMILES: CC[C@H](C)[C@H](NC(=O)[C@@H]1CCCN1C(=O)[C@H](CCC(N)=O)NC(C)=O)C(=O)N[C@@H](Cc1ccccc1)C(=O)N[C@@H](CCC(=O)O)C(=O)NCC(=O)N[C@@H](Cc1ccc(OP(=O)(O)O)cc1)C(=O)N[C@@H](C)C(=O)N[C@@H](CC(C)C)C(=O)N1CCC[C@H]1C(=O)N[C@@H](Cc1c[nH]cn1)C(=O)N[C@@H](C)C(=O)NCC(N)=O
notes: flank added to the 11-residue stretch (surmised: last residue of the library's constant GQSGQ); ACTA1, human, around pY171; flank added to the 11-residue stretch (surmised: first residue of the library's constant GGQSG); also called ACTA1 pTyr Y171; source: synthetic peptide (SynPeptide, China)
- Kd (Fyn SH2 domain (142-248)): 47.3 nM

B5: CBS pY308 (peptide)
peptide: Ac-QVEGIG[pY]DFIPTG-NH2
SMILES: CC[C@H](C)[C@H](NC(=O)CNC(=O)[C@H](CCC(=O)O)NC(=O)[C@@H](NC(=O)[C@H](CCC(N)=O)NC(C)=O)C(C)C)C(=O)NCC(=O)N[C@@H](Cc1ccc(OP(=O)(O)O)cc1)C(=O)N[C@@H](CC(=O)O)C(=O)N[C@@H](Cc1ccccc1)C(=O)N[C@H](C(=O)N1CCC[C@H]1C(=O)N[C@H](C(=O)NCC(N)=O)[C@@H](C)O)[C@@H](C)CC
notes: flank added to the 11-residue stretch (surmised: last residue of the library's constant GQSGQ); CBS, human, around pY308; flank added to the 11-residue stretch (surmised: first residue of the library's constant GGQSG); source: synthetic peptide (SynPeptide, China)
- Kd (Fyn SH2 domain (142-248)): 126 nM

B6: CBS pY308 G307S (peptide)
peptide: Ac-QVEGIS[pY]DFIPTG-NH2
SMILES: CC[C@H](C)[C@H](NC(=O)CNC(=O)[C@H](CCC(=O)O)NC(=O)[C@@H](NC(=O)[C@H](CCC(N)=O)NC(C)=O)C(C)C)C(=O)N[C@@H](CO)C(=O)N[C@@H](Cc1ccc(OP(=O)(O)O)cc1)C(=O)N[C@@H](CC(=O)O)C(=O)N[C@@H](Cc1ccccc1)C(=O)N[C@H](C(=O)N1CCC[C@H]1C(=O)N[C@H](C(=O)NCC(N)=O)[C@@H](C)O)[C@@H](C)CC
notes: flank added to the 11-residue stretch (surmised: last residue of the library's constant GQSGQ); CBS, human, around pY308, natural variant G307S; flank added to the 11-residue stretch (surmised: first residue of the library's constant GGQSG); source: synthetic peptide (SynPeptide, China)
- Kd (Fyn SH2 domain (142-248)): 185 nM

B7: PLCG2 pY 753 (peptide)
peptide: Ac-QDINSL[pY]DVSRMG-NH2
notes: flank added to the 11-residue stretch (surmised: last residue of the library's constant GQSGQ); PLCG2, human, around pY753; flank added to the 11-residue stretch (surmised: first residue of the library's constant GGQSG); also called PLCγ2 pY753; source: synthetic peptide (SynPeptide, China)
- Kd (Lyn SH2 domain (121-228)): 11700 nM
- Kd (c-Src SH2 domain): 12300 nM

B8: CD84 pY296 (peptide)
peptide: Ac-QAESRI[pY]DEILQG-NH2
notes: flank added to the 11-residue stretch (surmised: last residue of the library's constant GQSGQ); CD84, human, around pY296; flank added to the 11-residue stretch (surmised: first residue of the library's constant GGQSG); source: synthetic peptide (SynPeptide, China)
- Kd (Lyn SH2 domain (121-228)): 91 nM
- Kd (c-Src SH2 domain): 28.1 nM

B11: CD3Z pY83 (peptide)
peptide: Ac-QGRREE[pY]DVLDKG-NH2
SMILES: CC(=O)N[C@@H](CCC(N)=O)C(=O)NCC(=O)N[C@@H](CCCNC(=N)N)C(=O)N[C@@H](CCCNC(=N)N)C(=O)N[C@@H](CCC(=O)O)C(=O)N[C@@H](CCC(=O)O)C(=O)N[C@@H](Cc1ccc(OP(=O)(O)O)cc1)C(=O)N[C@@H](CC(=O)O)C(=O)N[C@H](C(=O)N[C@@H](CC(C)C)C(=O)N[C@@H](CC(=O)O)C(=O)N[C@@H](CCCCN)C(=O)NCC(N)=O)C(C)C
notes: flank added to the 11-residue stretch (surmised: last residue of the library's constant GQSGQ); CD3 zeta chain, human, around pY83; flank added to the 11-residue stretch (surmised: first residue of the library's constant GGQSG); also called CD3ζ pY83; source: synthetic peptide (SynPeptide, China)
- Kd (Lyn SH2 domain (121-228)): 2950 nM

Other lines, results leading:

- Kd (Lyn SH2 domain (121-228)): 3940 nM
- Kd (c-Src SH2 domain): 6480 nM
B2: TRAF3IP3 pY322 (peptide)
peptide: Ac-QEWRSQ[pY]EALKEG-NH2
notes: flank added to the 11-residue stretch (surmised: last residue of the library's constant GQSGQ); TRAF3IP3, human, around pY322; flank added to the 11-residue stretch (surmised: first residue of the library's constant GGQSG); source: synthetic peptide (SynPeptide, China)

- Kd (Grb2 SH2 domain): 3.99 nM
B3: Syn-G2-2 (synthetic) (peptide)
peptide: Ac-QHNIHS[pY]INIPPG-NH2
notes: source: synthetic peptide (SynPeptide, China)

- Kd (Grb2 SH2 domain): 31.8 nM
- Kd (c-Src SH2 domain): 9660 nM
B9: Syn-G2-1 (synthetic) (peptide)
peptide: Ac-QKEAHH[pY]VNWRTG-NH2
notes: as for B3

- Kd (Fyn SH2 domain (142-248)): 30.2 nM
B10: Syn-F-1 (synthetic) (peptide)
peptide: Ac-QLHVHP[pY]EKVEDG-NH2
SMILES: CC(=O)N[C@@H](CCC(N)=O)C(=O)N[C@@H](CC(C)C)C(=O)N[C@@H](Cc1c[nH]cn1)C(=O)N[C@H](C(=O)N[C@@H](Cc1c[nH]cn1)C(=O)N1CCC[C@H]1C(=O)N[C@@H](Cc1ccc(OP(=O)(O)O)cc1)C(=O)N[C@@H](CCC(=O)O)C(=O)N[C@@H](CCCCN)C(=O)N[C@H](C(=O)N[C@@H](CCC(=O)O)C(=O)N[C@@H](CC(=O)O)C(=O)NCC(N)=O)C(C)C)C(C)C
notes: as for B3

- Kd (Lyn SH2 domain (121-228)): 362 nM
- Kd (c-Src SH2 domain): 282 nM
B12: SIGLEC5 pY544 (peptide)
peptide: Ac-QPSTTE[pY]SEIKTG-NH2
notes: flank added to the 11-residue stretch (surmised: last residue of the library's constant GQSGQ); SIGLEC5, human, around pY544; flank added to the 11-residue stretch (surmised: first residue of the library's constant GGQSG); source: synthetic peptide (SynPeptide, China)
